Test results reported in the DeepSol protein solubility set.

Test: soluble on expression in E. coli; label from the status in PepcDB or PDB records

| Sequence | soluble on expression in E. coli |
| --- | --- |
| MSKEIDISIRYLENVLSTNNSTLILSSTAAVLEAVSKNCDTTNGELKRSIISLLRIIDKKCFLNQDVDVNQIKFSLQEVGKLSTKYPKSHQKPGNEVKVKTNAEFREIETVPNPDEENIDNLLNQLNLKKVPSFSPAFPDIGDDSDDENGITTKQKEEERAEQHGQKVCEEEVVKLPDGREIRMKKTKTVNVKQTTKHVTISTKSANMPEVSRTFMNARRGFDEDEEEENTNFGSSNMRGGDPFERFRSMLKDKDEKIEAIEGESSSDPGTPGSSSKSKTIERTSEVSQKVSEKKEKDGRLLAEHEASKLDKSNLFAKQVDTYQGAALIDRKGEGSYEESTLVRSALPQDSQVATPPRMHVVEYMMMFGDDKKNNENEYLKGTTISSYVRLNNNLTTHEEQFKKKIQFEFSTAGTSSTTIDLDNLSDLLNQTDFNCLRPPNKFLEDTPLIVEQPKAIDWQREPTSAPPEKDLLLEHDGVDYVIFREKEGKVLEVRGGPKDALIVYATQSTHSSLLYQEAFLITFRTFISSLELVNKLIKRYLYMSLADDSQSESIARHTFSVIVRIIDETTQYELDFDLITSVTSFVYRLIHDGNFTYSRILRTRLLDRIKDSFDIQTVLGTNLCKPRKPHDLFDFKSAEIACQLTFIDSQLYHRIESAELLWWAQEQNEKKSKNLVNFTEQFNNLSFWVRTLIITQGTQKERERHMMKFVKIMKHLREMCNFNSYLAILSAIMSTPLARLEWSKNIKDALKEHTAVMDTAQSYKNYRALLQTAKPPCVPYIGIILQDLTFVHAGNPDTIPSDRCHGAKNMINFLKRWNQFAILDSIRKLKKWNYDIKKNDIVVQYFNGFKDCIDEERTWQLSHQIKPSNRKSKTQA | not soluble |
| MGHHHHHHSHMEYSYIPSFALYNNADMFQFFPRNKRLSTHQKSCLDEHARKMAVFMMKRQEEYRYYENLANQEQFSDDAHFSDNGMDSGFCSGATSTGQSASTSPAPVQLIPNPFFDPEAKTQSPVKLVDNPELFMESKKKSARISA | not soluble |
| MKSYMTQRLDEYRDGNEDKGRLLVSCPDQPGIVSAVSAFLFEHGANIIESNQYTTDPEGGRFFLRIEFDCAGIREKKSSLQAAFASVAEKFDMTWSLTLASELKRVAIFVSKNLHCLHELIWEWQTGNLMAEIAVVISNHEEARELVERLNIPFHYMKANKDIRAEVEKKQLELLEQYDVDVIVLARYMQILTPDFVSAHPNRIINIHHSFLPAFIGANPYKRAYERGVKLIGATSHYVTNDLDEGPIIEQDIKRVDHRDNAETLKNIGRTIERSVLARAVKWHLEDRVIVHENK | not soluble |
| MTFKPVEICVYGADVICPACVQLPSSKETYEWLEAALRRKYPDQPFVMTYVDIFAPPADDEEKRELAQTIVEEDWVYPVVVIEGNVVAEGNPRLKAICAEMEKFGYRPSAHEGKKAE | not soluble |
| SMALYRVVLLGDPGVGKTSLASLFAGKQERDLHEQLGEDVYERTLTVDGEDTTLVVVDTWEAEKLDKSWSQESCLQGGSAYVIVYSIADRGSFESASELRIQLRRTHQADHVPIILVGNKADLARCREVSVEEGRACAVVFDCKFIETSATLQHNVAELFEGVVRQLRLRRRDSA | soluble |
| MITLTLFGQETSSSALIFAYCNAATGSNTMSTDCRRRLNKDLYLLIPEHPMNPKQFERWKSQLSQLSPQQLRALQGEIDRSLHQNESALLTEEERDAIAHLFS | not soluble |
| MGHHHHHHSHMKKLICISLYEDLSMTTYDLSKVDNAELIGIVENASEGTLFVFTCDRPNGSSVIMCPGGGFLKTNLENEGIDFAEWFTKLGITYIVFKYRMPHGNPDVPEQDTRLALKVVREKFPEFCDKLGVMGASIGGYLATFSATLLPDDEKPDFQILMYPVVSVDDRLTHFPCRERMFGHSYSPDKMEQYSPIEHITSGTPAAFIVAAADDAVVSPLNGIMYAARLQKADIPISLHIYPAGGHGFGYNDSFVYKQEWLQELGEWLAKL | soluble |
| MSLKIRDPYIDERTNMVVIRESPDVVRLAERLVELQDRNDSEVVLEVEVLEVSSTKLTQLGVQYPNSFTLTPLSATGASSLTLSDFKGLNSDRIGVSTPNVVLNLRRELGDTDLLANPKIRAKNHEKAKILIGDKLPVITTTSTSTGFVSESVQYIDVGLKLEVEPSISPDDEVSMKINLEVSSLTNQITTRSGTVAYQIGTRTANTVLKLHDGETQLLAGLIKTQQTSSAARIPGLGDIPLLGRLFSSQTDNGVRNEIVLSITPRVVKPSHRPDTNEGHHHHHH | soluble |
| MGSDKIHHHHHHMHSAALLQKVDELPRLPKAIAELLDVVNNEDSTVKAVSEKLSHDPVLSARVLRLANSARFGCSREVGTIDDAVVRLGMQTLRTLVIASAVVGAVPKVEGFDLADFWGNTFEVAIICQELAKRLGTLPEEAFTCGILHSIGELLIVNGDPAVAATISAAVADGADRNLMEKELLGYDNAEIGALLAQSWKFTPHLVKGIQFQNHPKSAEPYSKLAGMLAMAKQIAADWDKIPDDERTSWLAQINILAGIKVDLGGLAEKLAKMHGQGMEMGKQLA | not soluble |
| GMRSNRVTQHPPLQLSLPVHLPDDETFTSYYPAAGNDELIGALKSAASGDGVQAIYLWGPVKSGRTHLIHAACARANELERRSFYIPLGIHASISTALLEGLEQFDLICIDDVDAVAGHPLWEEAIFDLYNRVAEQKRGSLIVSASASPMEAGFVLPDLVSRMHWGLTYQLQPMMDDEKLAALQRRAAMRGLQLPEDVGRFLLNRMARDLRTLFDVLDRLDKASMVHQRKLTIPFVKEMLRL | soluble |
| NIENSSLERIANILNSKLKGLTIEQINLEVINNIKKDLREYGHIFDCIMPNLYDILREADSTEVYKEGTMNIFNYPEFKDIEKAKEFLSVIDDRRILDTLFNASGGVTVNIGNENSIKEARDFSVVSSVYKYNGRPLGTIGIIGPTRIPYSKVIKVIMEVVDQINNNLDKMNNS | not soluble |
| TVDKRYLNDEHFIDPELVSQRAAPLTEADKQILADKSLGYRVLNLTVDTYNDATTSRWHRSIGGYHAAKLQRYQDLIEHQLSKGNREVVNMLNTKYIIVPGENNRPSPMSNPDAYGPAWPAGSIRWVGNANEEMMALDSNRLTRDIAVVDERFSSESLKRLPALTDSTASISLKEYAPNRQVYEAVSTQPMLGIFSEIYYPHGWTATIDNQAVPIIRANYILRALEVPAGRHKIEFRFDPKSLHITEAIAKT | not soluble |
| MGSDKIHHHHHHMLKSLLLTPINLAVKPFPAAKARLDAAKIVLKRWVKLRHFISDLLHAKSFMFWSAQDTSYAKLSSELIFQYHKLEKGLCMAGPRRFFGRDPVIATCRLVKRWSGAGLPSNDPVFLGAIETLRAYRDRLAVTPPPPEHATQIWSLLNECLSLAPPTPSLTTPRPYQPSAGTAATFDLLCAQRRSVRAYTTDVVPISLIHEAIATAQLSPSACNRQPWRLHIYRDPQRTKHLLELQNGNAGFGHQLTTLLVVCADSRTFFDATERNEPYVDAGLFVMSLLLALQSRGLASCCLNWCVSPDTDQKGHDRGDIPSNEKIIMYLAVGYADAQAMVPRSPRRNLETVVTLHEQ | not soluble |
| MGAAGDAAIGRESRELMSAANVGRTISRIAHQIIEKTALDDPVGPDAPRVVLLGIPTRGVTLANRLAGNITEYSGIHVGHGALDITLYRDDLMIKPPRPLASTSIPAGGIDDALVILVDDVLYSGRSVRSALDALRDVGRPRAVQLAVLVDRGHRELPLRADYVGKNVPTSRSESVHVRLREHDGRDGVVISRGSHHHHHH | soluble |
| MSLIIIISGPPGSGKTSVAIKLANELSYKFISAGKIFRDIAQSMGLDIINLNRVAESNFDIDKMVDKKIHEYVLRERNLIVESHIAGWIFREYTDVAIYLWAPLKIRANRIAIRDKISYVEAVSQIIRREYMHYKRFNKFYGIDINDLSVFDLVINTSNIDINNIVKLILDYLSSVSHNEGHHHHHH | soluble |
| MSDSNTSSLPRAAQLEPDAAPAVAVLQQALQWQVIFWSGEATDRDRMRWQSWLAADPAHARAWAQVQRTDEQLQTLASPAAEVLRSADARRCKARRTVLGMAGLLAGAGIMGCGLRQTAQWQMMMADDHTGYGERRNIELADGTQVTLGSATAIDVCYSAQARQLLLRTGEIFIVTAPDSADRPFLVQTTRGSVQALGTRFNVRESGEQIQVAVQDGAVAIRPAGMNPGDVVRLDAGQQTCFDHTKVEAAEALQISATAWTRGLLVAERMRLEDFLVELGRYRSGVLRCDPAVRDLIVSGVYSLDDTDQSLRLLAQALPVQVQTVTRWWTIVGPRPMK | not soluble |
| MQIWHMEPFPCGDRRLPHHVFPPKKITTTQLGQLAGVQYYKVDLDDTASMKKRLSAVKTEKNVTFTDMFTVSETMLEFDDKMEQFYEPQVQKEDVISLVVEGTCYYDVEPEDDSWIRVQVEKGDLIVIPKGLSHRFTTTPQNFVKIQRFFSRKVEGNQG | not soluble |
| QSQSNQATPSKVVSGEVNAASFAQFSNAFIDDLWQLSPTWALYSGKHVNDGYLEIPDEAGRVKTLAFVKAQQAKLKQFELKSLTSNETIDYHLIDNLLSSMAWDITRFKSWQWDPSSYNVAGGFAQIINENFAPLDDRLRSVLARMENIPAYYAAARGNISQPTLEHTELAVLQNQGAFSVFSDDLLKQVADSGLSDAEKALFKTRFDIASKAINEHISWLNAQVSQLKKEGARSFRIGEELYEQKFAFDIQAGMTAKQLYQKAMVDKDRVQGEMAKITDKLWPKYFTTPKPSDNKIAIRQLIDKLSTKHVKRDDFVSEVRKQIPELIEFVNQKNIVTLDPKKPLVVRETPEYMRGYAGASISAPGPYDKLGNTYYNVTPLDGMSNESAESYLREYNHWILQILNIHEAIPGHYTQLVYSNESPSLVKSLFGNGAMVEGWAVYTERMMLEEGYGNFEPEMWLMYYKWNLRVICNTILDYSIHVKGMTEEQAIALMMDEAFQQRAEAEGKWRRATLSQVQLTSYYSGYREIYDFREEYKQLKGKDFDLKAFHEKFLSYGSAPVKYIRQLMLE | soluble |
| MEALKIALLGGGTVGSAFYNLVLERAEELSAFGVVPRFLGVLVRDPRKPRAIPQELLRAEPFDLLEADLVVEAMGGVEAPLRLVLPALEAGIPLITANKALLAEAWESLRPFAEEGLIYHEASVMAGTPALSFLETLRGSELLELHGILNGTTLYILQEMEKGRTYAEALLEAQRLGYAEADPTLDVEGIDAAHKLTLLARLLVDPGFPFAEVEAQGIARLTPEVLQKAEARGERVRLVASLFGEGGRWRAAVAPRRLPQDHPLARARGNALWVRARPLGEAFVTGPGAGGGATASGLFADLLRFLSGAPGHLPAPRARPPLEEGSPWPGVE | soluble |
| MQKTIYDVSFINGEVKTFTPLMLDNVMAEKELVARGGNIRENSIEFMAILTHKVCRRTYRENTPLDLDIFLESVLDIDTRVEEVTTFPEQNLDAHGPEPRHRT | not soluble |
| MGSDKIHHHHHHMSDTLTDSRIVYFYEAVRCGTIRAAADWLDVAPSAVSRQIGLLEKELDATLVERHARGVTPTDAGRCVIEYFREQLAHRDDLISRLQELRGLKTGQVSLVLGEGFVSDLLAGPMQQFCRQFPGIRVNLDVGSTNDVIRKISNDEGEIGLVYNPPAEPKLVSRASKRQPMMAIVGPDFPRRSHKVLTVQQLATYPMAATHPSYGTRQMMEAVEYAERVRLAPIITTNSFAILKEFVKSGLGISVMPAFAVAAELQAKELFAIEIAHPILENAEAHMVTRVGRKLSVAANKMLQMMTGQMRAFR | not soluble |
| MGSDKIHHHHHHVEQAQLDEYLDRFQLTDVFAGGLREHLQPVAFQAGDWLCRQGDAADRMYLLLEGKLKITHMSATGKRLVLSFKHPFDLVGDIEYVRRTPLMNTVEAVTPVKAVSISYAALEQKGADNPALLRFLLETITMKFELKSHSMSFNLLYPVEVRLASYLLSMTPETPTLPVSDLVDAADLIGTSYRHLNRVLRQFSQDNLIERTNRTITIIDREGLTERVGESIYE | not soluble |
| DIGCYTLGIQSGTVETTLCMGSSISIASGLYHAGEKRPICCSIGDSTFFHTGMNSLLNAVFNKANITVTILDNRITAMTGHQPNPGVGFTVTGEPTVEVSLAELCKAMGAGFVTVVDPYNLEETQEAFKAAKEFEGTAVVIAKQPCVISGKRAGI | not soluble |
